The text below walks through data of publication PMC9352680, “A comprehensive thermodynamic model for RNA binding by the Saccharomyces cerevisiae Pumilio protein PUF4”.

For the series, the target named is T1, PUF4 RNA-binding domain (Saccharomyces cerevisiae, UniProt P25339 537-888).
T1 sequence: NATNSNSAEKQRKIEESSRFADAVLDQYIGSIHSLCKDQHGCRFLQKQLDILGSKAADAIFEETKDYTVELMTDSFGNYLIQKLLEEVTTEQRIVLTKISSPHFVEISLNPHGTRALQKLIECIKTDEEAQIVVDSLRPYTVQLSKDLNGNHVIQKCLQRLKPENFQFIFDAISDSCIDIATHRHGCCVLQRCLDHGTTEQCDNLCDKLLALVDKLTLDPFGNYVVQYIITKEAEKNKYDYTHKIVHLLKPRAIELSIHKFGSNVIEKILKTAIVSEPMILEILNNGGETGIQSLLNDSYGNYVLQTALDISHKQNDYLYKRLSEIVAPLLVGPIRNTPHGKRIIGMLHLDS
As to the kind of experiment: Mg; RNA-MaP; 20 mM Na-HEPES pH 7.4, 30 mM KOAc, 0.75 mM MgCl2, 0.1% Tween-20, 5% glycerol, 0.1 mg/mL BSA, 2 mM DTT; 25 C; 0.0125-409.6 nM protein. Particulars: tags: N-His6-TEV cleaved; C-SNAP kept, Cy3B-labelled; label: tethered on chip by stalled RNA polymerase.

Where a chain is given by its changes, count along the chain named. Names may count otherwise. A value given as a limit tells only on which side of the number the result lay.

B1: Id_ii_S2_P3E.2_K3.1_C3.2_[C-2T]_[T-1C]_H3.1_A3.1_F3.1_T3.2_[A10T] (ssRNA)
RNA: UUUGAUUAAUAUGAUAUCGUUCUUUCUUCUGUAUAUAUUUUCUUUCUCGAUAUCAUAUUAAUCUUU
In turn, B1 came in with an equilibrium dissociation constant (Kd) of 1.17 nM.

B2: Id_ii_S2_P3E.2_K3.1_C3.2_[C-2T]_H3.1_A3.1_F3.1_T3.2_[T9C]_[A10C] (ssRNA)
RNA: B1 RNA with C29U, U38C, U39C
B2 displayed a Kd of 2.82 nM. Compared with the last molecule, the Kd is about 2.4-fold higher.

B3: Id_ii_S2_P3E.2_K3.1_C3.2_[C-2T]_H3.1_A3.1_F3.1_T3.2_[T9G]_[A10T] (ssRNA)
RNA: B1 RNA with C29U, U38G
B3 had a Kd of 2.77 nM.

B4: Id_ii_S2_P3E.2_K3.1_C3.2_[C-2T]_[T-1A]_H3.1_A3.1_F3.1_T3.2_[T9A]_[A10T] (ssRNA)
RNA: B1 RNA with C29A, U38A
B4: the Kd is 14.1 nM.

B5: Id_ii_S2_P3E.2_K3.1_C3.2_[C-2T]_[T-1A]_H3.1_A3.1_F3.1_T3.2_[T9G]_[A10C] (ssRNA)
RNA: B1 RNA with C29A, U38G, U39C
Molecule B5 displayed a dissociation constant Kd of 5.76 nM.

B6: Id_ii_S2_P3E.2_K3.1_C3.2_[C-2A]_[T-1C]_H3.1_A3.1_F3.1_T3.2_[A10C] (ssRNA)
RNA: B1 RNA with U28A, U39C
Molecule B6 yielded an equilibrium dissociation constant (Kd) of 1.69 nM.

B7: Id_ii_S2_P3E.2_K3.1_C3.2_[C-2T]_[T-1A]_H3.1_A3.1_F3.1_T3.2_[T9A]_[A10C] (ssRNA)
RNA: B1 RNA with C29A, U38A, U39C
In turn, B7 gave a dissociation constant (Kd) of 16.3 nM. Against the preceding molecule, the Kd is about 9.6-fold higher.

B8: Id_ii_S2_P3E.2_K3.1_C3.2_[C-2A]_[T-1G]_H3.1_A3.1_F3.1_T3.2_[T9A]_[A10G] (ssRNA)
RNA: B1 RNA with U28A, C29G, U38A, U39G
On to B8, for which the dissociation constant (Kd) came to 10.2 nM.

B9: Id_ii_S2_P3E.2_K3.1_C3.2_[C-2A]_[T-1A]_H3.1_A3.1_F3.1_T3.2_[A10G] (ssRNA)
RNA: B1 RNA with U28A, C29A, U39G
B9: the Kd is 7.2 nM.

B10: Id_ii_S2_P3E.2_K3.1_C3.2_[C-2A]_H3.1_A3.1_F3.1_T3.2_[T9C]_[A10G] (ssRNA)
RNA: B1 RNA with U28A, C29U, U38C, U39G
B10 showed a Kd of 19 nM.

B11: Id_ii_S2_P3E.2_K3.1_C3.2_[C-2T]_[T-1A]_H3.1_A3.1_F3.1_T3.2_[A10T] (ssRNA)
RNA: B1 RNA with C29A
For the molecule B11, the Kd was 3.9 nM.

B12: Id_ii_S2_P3E.2_K3.1_C3.2_[C-2T]_[T-1A]_H3.1_A3.1_F3.1_T3.2_[A10C] (ssRNA)
RNA: B1 RNA with C29A, U39C
As for B12, binding was characterised by a dissociation constant (Kd) of 6.09 nM.

B13: Id_ii_S2_P3E.2_K3.1_C3.2_[C-2A]_[T-1C]_H3.1_A3.1_F3.1_T3.2_[T9A] (ssRNA)
RNA: B1 RNA with U28A, U38A, U39A
For B13, the affinity, expressed as Kd, was 3.66 nM.

B14: Id_ii_S2_P3E.2_K3.1_C3.2_[C-2T]_H3.1_A3.1_F3.1_T3.2_[A10C] (ssRNA)
RNA: B1 RNA with C29U, U39C
As to B14, binding was put at a Kd of 1.55 nM.

B15: Id_ii_S2_P3E.2_K3.1_C3.2_[C-2A]_[T-1A]_H3.1_A3.1_F3.1_T3.2_[A10T] (ssRNA)
RNA: B1 RNA with U28A, C29A
In turn, B15 showed a Kd of 6.37 nM.

B16: Id_ii_S2_P3E.2_K3.1_C3.2_[C-2A]_[T-1A]_H3.1_A3.1_F3.1_T3.2_[T9G]_[A10C] (ssRNA)
RNA: B1 RNA with U28A, C29A, U38G, U39C
For the molecule B16, the affinity, expressed as Kd, was 10 nM.

B17: Id_ii_S2_P3E.2_K3.1_C3.2_[C-2T]_H3.1_A3.1_F3.1_T3.2_[T9A] (ssRNA)
RNA: B1 RNA with C29U, U38A, U39A
B17 returned a dissociation constant (Kd) of 6.87 nM. This Kd and that of the molecule before are within 1.5-fold of each other.

B18: Id_ii_S2_P3E.2_K3.1_C3.2_[C-2A]_[T-1C]_H3.1_A3.1_F3.1_T3.2_[T9G]_[A10C] (ssRNA)
RNA: B1 RNA with U28A, U38G, U39C
Take B18: binding was characterised by a dissociation constant (Kd) of 7.15 nM.

B19: Id_ii_S2_P3E.2_K3.1_C3.2_[C-2T]_H3.1_A3.1_F3.1_T3.2_[T9A]_[A10C] (ssRNA)
RNA: B1 RNA with C29U, U38A, U39C
B19 showed a dissociation constant Kd of 4.14 nM.

B20: Id_ii_S2_P3E.2_K3.1_C3.2_[C-2T]_H3.1_A3.1_F3.1_T3.2_[A10T] (ssRNA)
RNA: B1 RNA with C29U
As to B20, the Kd stood at 1.56 nM. Compared with the last molecule, the Kd is about 2.7-fold lower.

B21: Id_ii_S2_P3E.2_K3.1_C3.2_[C-2A]_[T-1G]_H3.1_A3.1_F3.1_T3.2_[A10T] (ssRNA)
RNA: B1 RNA with U28A, C29G
Take B21: the Kd worked out at 4.88 nM.

B22: Id_ii_S2_P3E.2_K3.1_C3.2_[C-2A]_H3.1_A3.1_F3.1_T3.2_[T9C]_[A10C] (ssRNA)
RNA: B1 RNA with U28A, C29U, U38C, U39C
Molecule B22 displayed a Kd of 6.81 nM.

B23: Id_ii_S2_P3E.2_K3.1_C3.2_[C-2A]_H3.1_A3.1_F3.1_T3.2_[T9C]_[A10T] (ssRNA)
RNA: B1 RNA with U28A, C29U, U38C
The molecule B23 showed a Kd of 8.7 nM. The Kd values of the last two molecules are within 1.5-fold of each other.

B24: Id_ii_S2_P3E.2_K3.1_C3.2_[C-2A]_[T-1G]_H3.1_A3.1_F3.1_T3.2_[A10G] (ssRNA)
RNA: B1 RNA with U28A, C29G, U39G
The molecule B24 registered a Kd of 5.7 nM.

B25: Id_ii_S2_P3E.2_K3.1_C3.2_[C-2T]_H3.1_A3.1_F3.1_T3.2_[T9C]_[A10T] (ssRNA)
RNA: B1 RNA with C29U, U38C
In the case of B25, binding was put at a Kd of 4.94 nM.

B26: Id_ii_S2_P3E.2_K3.1_C3.2_[C-2T]_[T-1A]_H3.1_A3.1_F3.1_T3.2_[T9C]_[A10T] (ssRNA)
RNA: B1 RNA with C29A, U38C
In turn, B26 displayed a Kd of 5.43 nM.

B27: Id_ii_S2_P3E.2_K3.1_C3.2_[C-2T]_H3.1_A3.1_F3.1_T3.2_[A10G] (ssRNA)
RNA: B1 RNA with C29U, U39G
Turning to B27, the Kd is 2.61 nM.

B28: Id_ii_S2_P3E.2_K3.1_C3.2_[C-2T]_H3.1_A3.1_F3.1_T3.2_[T9A]_[A10T] (ssRNA)
RNA: B1 RNA with C29U, U38A
B28: binding was put at a Kd of 4.47 nM.

B29: Id_ii_S2_P3E.2_K3.1_C3.2_[C-2A]_[T-1A]_H3.1_A3.1_F3.1_T3.2_[T9A]_[A10T] (ssRNA)
RNA: B1 RNA with U28A, C29A, U38A
B29 gave a Kd of 10.1 nM.

B30: Id_ii_S2_P3E.2_K3.1_C3.2_[C-2T]_H3.1_A3.1_F3.1_T3.2_[T9C]_[A10G] (ssRNA)
RNA: B1 RNA with C29U, U38C, U39G
Consider B30, for which binding was characterised by a dissociation constant (Kd) of 3.7 nM.

B31: Id_ii_S2_P3E.2_K3.1_C3.2_[C-2T]_[T-1A]_H3.1_A3.1_F3.1_T3.2_[T9A] (ssRNA)
RNA: B1 RNA with C29A, U38A, U39A
B31 showed a Kd of 16.9 nM.

B32: Id_ii_S2_P3E.2_K3.1_C3.2_[C-2T]_[T-1A]_H3.1_A3.1_F3.1_T3.2_[A10G] (ssRNA)
RNA: B1 RNA with C29A, U39G
B32 showed a Kd of 31.5 nM.

B33: Id_ii_S2_P3E.2_K3.1_C3.2_[C-2T]_[T-1A]_H3.1_A3.1_F3.1_T3.2_[T9G]_[A10T] (ssRNA)
RNA: B1 RNA with C29A, U38G
Take B33: the Kd was found to be 7.14 nM. This Kd lies about 4.4-fold lower than the previous one.

B34: Id_ii_S2_P3E.2_K3.1_C3.2_[C-2A]_[T-1C]_H3.1_A3.1_F3.1_T3.2_[T9C]_[A10G] (ssRNA)
RNA: B1 RNA with U28A, U38C, U39G
Turning to B34, binding was characterised by a dissociation constant (Kd) of 49.4 nM.

B35: Id_ii_S2_P3E.2_K3.1_C3.2_[C-2A]_[T-1G]_H3.1_A3.1_F3.1_T3.2_[A10C] (ssRNA)
RNA: B1 RNA with U28A, C29G, U39C
Molecule B35 registered a Kd of 38.5 nM. The Kd values of the last two molecules are within 1.5-fold of each other.

B36: Id_ii_S2_P3E.2_K3.1_C3.2_[C-2T]_H3.1_A3.1_F3.1_T3.2 (ssRNA)
RNA: B1 RNA with C29U, U39A
Regarding B36, binding was characterised by a dissociation constant (Kd) of 1.24 nM.
As to UCUCUUUUUAUUAGUAUCUCUU (ssRNA) [Ib_S1_P5E.1_K5.1_C5.1_H5.1_[G2T]_A5.1_F5.1_[T8G]_T5.1], the Kd was > 2300 nM.
Take UCUCUUUAUAUUAAUAUCUCUU (ssRNA) [Ib_S1_P5E.1_K5.1_C5.1_H5.1_[G2A]_A5.1_F5.1_[T8A]_T5.1]: the equilibrium dissociation constant (Kd) amounted to 698 nM. In other words, the sub-micromolar range.
Molecule UCUCUUUGUAUUAUAAUCUCUU (ssRNA) [Ia_S1_P5E.1_K5.1_C5.1_H5.1_A5.1_F5.1_[T9A]_T5.1] returned a Kd of 2.37 nM.
Then UCUCUUUAUAUUACUAUCUCUU (ssRNA) [Ib_S1_P5E.1_K5.1_C5.1_H5.1_[G2A]_A5.1_F5.1_[T8C]_T5.1], with 728 nM.
As to UCUCUUAGUAUUAGUAUCUCUU (ssRNA) [Ib_S1_P5E.1_K5.1_C5.1_H5.1_[T1A]_A5.1_F5.1_[T8G]_T5.1], the equilibrium dissociation constant (Kd) was > 2300 nM.
